Data published in publication PMC3796546.

Biological target: T1, Smt3 (SUMO), endogenous, Q12306
T1 chain: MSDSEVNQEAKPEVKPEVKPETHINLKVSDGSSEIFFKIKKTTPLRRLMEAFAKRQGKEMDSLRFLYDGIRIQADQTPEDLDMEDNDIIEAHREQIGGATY
Experiment: co-IP with mass spectrometry
Settings: chain shown with the change, cross-linked in vivo with formaldehyde, p value 0.04637

ratio to parent: > 11
other: sum (parent: 0): 11
B1: N-terminal 3xHA-tagged wild-type Irc20, Q06554 C1239A (protein)
chain: MSAVGALLAREYNVTAEKCDFFLENGSFDSVIAALPALNQEQETVTQKVSKNGKELINVASVNIEIPERISLSNNGRQLFKFIVDIEILPCENDNEATLVVSSDSVSLFQIGFKMENNSKIAVDKQLPLILDICAHKNQERALRNQLENRKSLERKPSRKRRKKNSNVNDPEKLLKSRIHELSLSYKDFECSPVVFRYNDSSLTWVLSFNLKLKFLNNKFNRFSVEANQILDLTFSNRDENEFERYHKHSHIHSNFIQKQFISQILEYSKDRLSKIKPFLPQSIPDLKVNLLPFQRESVEWMLIKEGHGNSLSDTPTVIDEVGLIDFMNEYYAYGYELIARSPDEVGPSLLWNKLTGYILTTEDAAHLYNQYRKERLSGDYPVCAKGVLAEEMGLGKTIEILSLILLNRRKLKDSEATFIDDENRTITKTKTTLIICPNAILKQWLEEIELHANSLKWYTYRGYNEIMKDCKTVDEAVQQLCQYDIIVTSYNIIATEVHHAEFNRSIRSRRLKSPKYDYSSPLALMQFYRIILDEVQMLRSSSTYSAKCTSLLHRIHTWGVSGTPIQNIYNFRMIMSYLKLHPFCDEVDFIRTLQEEIKLRNEAKDYTSNDFVCQLKGVRFSIKDCMNIFYRYDLCIRHSKANVASQIHIPRQHNFIIPLEFAPIEWDNYLNLWNNFLELSGYNSDGSGSPRVSNAFLNEWLSRLRYICCHALFPEILSTRQKRLHGHLSRISNIDDILISMRMDAFDSLIGYYRERFHLSIKQAQYELEISNTPAKALESFIKIRDDLMIHIRQKFNVEDPFDKSLNLSEDEDEHMDERFGEKETSSGDESDREINGAKNHDNHNNDGMLSNHLKKKGLRAMMNLLHDCYFFLGSVYYNLGTRKLEEADDKHRKEKTEEVVYSDVFPKNELEEIEENRLLEQENYANAEILRKSILSSEARKVDMTIKMARTKFAPMTSNIPLRLINIEFDHKNDYSSNLAVSRCFKSLSKLIEGLNEQTKNFNELLDELLIIIYEPVHRTEDDDSTNKIIGNEEYSTSIDSQDKIFSLLGCLEIILQNRDNILTSESEVKIPKHLVPEGSIISKYQKQLLNSLRLISGTPLRTVFDELKNSRIVRRISSSNESESTIQNFEDYLLQYEVESKSLFKYNKQVRESLKILGSIYNAKTEYYSQLQRISDSLVSLHSLSAPQLSHLIRTINKSLGGTLDAKINNIESRLIYLKNLSRLKDTLNDNQILSASICLGEVEIGAIIKCGHYFCKSCILTWLRAHSKCPICKGFCSISEVYNFKFKNSTEKREKEIQEPRREGADSSQDNSNENSIISNMSEVEKLFGNKYEQFHQINEVHQIHIKESFGAKIDFVIKLISYLRLKSEQENADPPQVILYSQKTEYLKVIGKVLKLYHIEHLACLSNTANVGETINNFKRQPSVTCLLLNVKTLGAGLNLINAKHIFLLDPILNNSDELQAMGRNNRIGQDEETFVWNFMIRNTVEENILRYKCILEERKRKEKSKKGDKYDEAQDETDNEESDDAKFEISVVDQEVSNEHLWNCFFHGSD
